Data on one substance can be found in US20110318377.

The test system of data set [1] is histones purified from calf thymus.
Data set [2] relates to full-length synthetic Tat protein (72 amino acids), unmodified.

Turning to recombinant G9a (Upstate), the figures for the “in vitro methylation with radiolabeled SAM, autoradiography” value in data set [1] and in data set [2] were “led to the successful methylation of histones as expected” and “Incubation with the lysine methyltransferase G9a did not result in methylation of Tat”, respectively.
